From patent publication US20230272055A1 (Incyte, published 2023)
Changes are numbered by the printed parent chain.

B1: anti-mutCALR antibody clone 55 (antibody, human IgG1, lambda, N297A)
heavy: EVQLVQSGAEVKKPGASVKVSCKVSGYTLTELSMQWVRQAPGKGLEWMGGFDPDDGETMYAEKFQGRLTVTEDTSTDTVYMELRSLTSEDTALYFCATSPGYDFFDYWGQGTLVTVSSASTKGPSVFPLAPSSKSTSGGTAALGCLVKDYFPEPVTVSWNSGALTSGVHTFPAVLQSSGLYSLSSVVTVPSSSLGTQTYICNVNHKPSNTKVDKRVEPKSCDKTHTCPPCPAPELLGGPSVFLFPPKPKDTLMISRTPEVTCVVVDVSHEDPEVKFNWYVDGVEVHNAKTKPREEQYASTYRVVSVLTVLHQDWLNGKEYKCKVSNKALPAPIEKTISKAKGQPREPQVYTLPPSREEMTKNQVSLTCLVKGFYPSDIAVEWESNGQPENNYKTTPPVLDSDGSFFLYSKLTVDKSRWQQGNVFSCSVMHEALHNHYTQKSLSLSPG
light: QSALTQPASVSGSPGQSITISCTGTSSDVGGYNYVSWYQQHPGKAPKLMIYEVSNRPSGVSNRFSGSNSGNTATLTINRVEAGDEADYYCQVWDSSNDLLIFGGGTKLTVLGQPKAAPSVTLFPPSSEELQANKATLVCLISDFYPGAVTVAWKADSSPVKAGVETTTPSKQSNNKYAASSYLSLTPEQWKSHRSYSCQVTHEGSTVEKTVAPTECS
notes: also called antibody 55
B2: anti-mutCALR antibody clone 61 (antibody, human IgG1, lambda, N297A, V domains shown)
VH: EVQLVQSGAEVKKPGASVKVSCKVSGYTLTELSMQWVRQAPGKGLEWMGGFDPDAGETMYAEKFQGRLTVTEDTSTDTVYMELSSLRSEDTAVYFCATSPGYDFFDYWGQGTLVTVSS
VL: QSALTQPASVSGSPGQSITISCTGTSSDVGGYNYVSWYQQHPGKAPKLMIYEVSNRPSGVSNRFSGSNSGNTATLTINRVEAGDEADYYCQVWDSSNDLLIFGGGTKLTVLG
B3: anti-mutCALR antibody clone 58 (antibody, human IgG1, lambda, N297A, V domains shown)
VH: B2 VH with A55E, S84R, R87T, V93L
VL: B2 VL
B4: anti-mutCALR antibody clone 59 (antibody, human IgG1, lambda, N297A, V domains shown)
VH: B2 VH with A55D, G56A, S84R, R87T, V93L
VL: B2 VL
B5: anti-mutCALR antibody clone 56 (antibody, human IgG1, lambda, N297A, V domains shown)
VH: B2 VH with S84R, R87T, V93L
VL: B2 VL
B6: anti-mutCALR antibody clone 127 (antibody, human IgG1, lambda, N297A, V domains shown)
VH: B2 VH with A55E, S84R, R87T, V93L
VL: SYELTQPPSVSVAPGKTARITCGGDNIGSKSVHWYQQKPGQAPVLVVYDDSDRPSGIPERFSGSNSGNTATLTINRVEAGDEADYYCQVWDSSNDLLIFGGGTKLTVLG
B7: anti-mutCALR antibody clone 130 (antibody, human IgG1, lambda, N297A, V domains shown)
VH: B2 VH
VL: B6 VL
B8: anti-mutCALR antibody clone 136 (antibody, human IgG1, lambda, N297A, V domains shown)
VH: B2 VH with A55S, S84R, R87T, V93L
VL: B6 VL with E3V, N75S
B9: anti-mutCALR antibody clone 174 (antibody, human IgG1, lambda, N297A, V domains shown)
VH: B2 VH with A55D, G56A, S84R, R87T, V93L
VL: SYVLTQPPSVSVAPGQTARITCGGSDIGDEIVHWYQQKPGQAPVLVVYDDSDRPSGIPERFSGSNSGNTATLTISRAQAGDEADYYCQVWDSSSDHLIFGGGTKLTVLG
B10: anti-mutCALR antibody clone 140 (antibody, human IgG1, lambda, N297A, V domains shown)
VH: B2 VH
VL: B6 VL with E3V, N75S
B11: anti-mutCALR antibody clone 128 (antibody, human IgG1, lambda, N297A, V domains shown)
VH: B2 VH with A55D, G56A, S84R, R87T, V93L
VL: B6 VL
B12: anti-mutCALR antibody clone 182 (antibody, human IgG1, lambda, N297A, V domains shown)
VH: B2 VH with A55S, S84R, R87T, V93L
VL: B9 VL with A77V, Q78E
B13: anti-mutCALR antibody clone 173 (antibody, human IgG1, lambda, N297A, V domains shown)
VH: B2 VH with A55E, S84R, R87T, V93L
VL: B9 VL
B14: anti-mutCALR antibody clone 186 (antibody, human IgG1, lambda, N297A, V domains shown)
VH: B2 VH
VL: B9 VL with A77V, Q78E
B15: anti-mutCALR antibody clone 171 (antibody, human IgG1, lambda, N297A, V domains shown)
VH: B2 VH with S84R, R87T, V93L
VL: B9 VL
B16: anti-mutCALR antibody clone 184 (antibody, human IgG1, lambda, N297A, V domains shown)
VH: B2 VH with A55D, G56A, S84R, R87T, V93L
VL: B9 VL with A77V, Q78E
B17: anti-mutCALR antibody clone 170 (antibody, human IgG1, lambda, N297A)
heavy: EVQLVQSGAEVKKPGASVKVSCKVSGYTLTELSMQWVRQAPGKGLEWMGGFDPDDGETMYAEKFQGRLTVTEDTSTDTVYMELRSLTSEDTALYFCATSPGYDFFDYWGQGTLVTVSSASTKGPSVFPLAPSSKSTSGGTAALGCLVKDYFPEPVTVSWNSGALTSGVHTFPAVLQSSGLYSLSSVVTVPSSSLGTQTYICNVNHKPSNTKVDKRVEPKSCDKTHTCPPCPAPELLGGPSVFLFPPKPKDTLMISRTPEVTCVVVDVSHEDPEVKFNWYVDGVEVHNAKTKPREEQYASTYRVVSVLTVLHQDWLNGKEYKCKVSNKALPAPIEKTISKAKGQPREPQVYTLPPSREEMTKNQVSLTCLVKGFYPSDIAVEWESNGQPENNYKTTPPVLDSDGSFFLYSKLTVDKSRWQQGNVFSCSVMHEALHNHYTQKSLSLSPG
light: SYVLTQPPSVSVAPGQTARITCGGSDIGDEIVHWYQQKPGQAPVLVVYDDSDRPSGIPERFSGSNSGNTATLTISRAQAGDEADYYCQVWDSSSDHLIFGGGTKLTVLGQPKAAPSVTLFPPSSEELQANKATLVCLISDFYPGAVTVAWKADSSPVKAGVETTTPSKQSNNKYAASSYLSLTPEQWKSHRSYSCQVTHEGSTVEKTVAPTECS
B18: anti-mutCALR antibody clone 187 (antibody, human IgG1, lambda, N297A, V domains shown)
VH: B2 VH with A55S
VL: B9 VL with A77V, Q78E
B19: anti-mutCALR antibody clone 181 (antibody, human IgG1, lambda, N297A, V domains shown)
VH: B2 VH with S84R, R87T, V93L
VL: B9 VL with A77V, Q78E
B20: anti-mutCALR antibody clone 135 (antibody, human IgG1, lambda, N297A, V domains shown)
VH: B2 VH with S84R, R87T, V93L
VL: B6 VL with E3V, N75S
B21: anti-mutCALR antibody clone 189 (antibody, human IgG1, lambda, N297A, V domains shown)
VH: B2 VH with A55D, G56A
VL: B9 VL with A77V, Q78E
B22: anti-mutCALR antibody clone 143 (antibody, human IgG1, lambda, N297A, V domains shown)
VH: B2 VH with A55D, G56A
VL: B6 VL with E3V, N75S
B23: anti-mutCALR antibody clone 141 (antibody, human IgG1, lambda, N297A, V domains shown)
VH: B2 VH with A55S
VL: B6 VL with E3V, N75S
B24: anti-mutCALR antibody clone 134 (antibody, human IgG1, lambda, N297A)
heavy: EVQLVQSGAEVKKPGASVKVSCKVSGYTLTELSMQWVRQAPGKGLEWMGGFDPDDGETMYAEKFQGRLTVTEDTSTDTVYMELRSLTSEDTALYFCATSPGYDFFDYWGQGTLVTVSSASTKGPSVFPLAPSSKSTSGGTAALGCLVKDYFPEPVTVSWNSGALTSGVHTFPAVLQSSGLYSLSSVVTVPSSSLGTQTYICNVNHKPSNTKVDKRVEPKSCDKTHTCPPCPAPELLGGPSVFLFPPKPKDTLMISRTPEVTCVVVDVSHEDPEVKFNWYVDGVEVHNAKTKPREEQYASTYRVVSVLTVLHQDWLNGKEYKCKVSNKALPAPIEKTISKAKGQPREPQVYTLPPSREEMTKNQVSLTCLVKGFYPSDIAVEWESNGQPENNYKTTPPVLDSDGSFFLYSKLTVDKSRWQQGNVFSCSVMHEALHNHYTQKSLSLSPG
light: B17 light with Q16K, S25D, D26N, D29S, E30K, I31S, A77V, Q78E, S94N, H96L
B25: anti-mutCALR antibody clone 131 (antibody, human IgG1, lambda, N297A, V domains shown)
VH: B2 VH with A55S
VL: B6 VL
B26: anti-mutCALR antibody clone 132 (antibody, human IgG1, lambda, N297A, V domains shown)
VH: B2 VH with A55E
VL: B6 VL
B27: anti-mutCALR antibody clone 183 (antibody, human IgG1, lambda, N297A, V domains shown)
VH: B2 VH with A55E, S84R, R87T, V93L
VL: B9 VL with A77V, Q78E
B28: anti-mutCALR antibody clone 138 (antibody, human IgG1, lambda, N297A, V domains shown)
VH: B2 VH with A55D, G56A, S84R, R87T, V93L
VL: B6 VL with E3V, N75S
B29: anti-mutCALR antibody clone 172 (antibody, human IgG1, lambda, N297A, V domains shown)
VH: B2 VH with A55S, S84R, R87T, V93L
VL: B9 VL
B30: anti-mutCALR antibody clone 133 (antibody, human IgG1, lambda, N297A, V domains shown)
VH: B2 VH with A55D, G56A
VL: B6 VL
B31: anti-mutCALR antibody clone 142 (antibody, human IgG1, lambda, N297A, V domains shown)
VH: B2 VH with A55E
VL: B6 VL with E3V, N75S
B32: anti-mutCALR antibody clone 137 (antibody, human IgG1, lambda, N297A, V domains shown)
VH: B2 VH with A55E, S84R, R87T, V93L
VL: B6 VL with E3V, N75S
B33: anti-mutCALR antibody clone 188 (antibody, human IgG1, lambda, N297A, V domains shown)
VH: B2 VH with A55E
VL: B9 VL with A77V, Q78E

Target: T1, human mutCALR on BaF3 cells stably expressing human MPL and human mutCALR (MPL-mutCALR cells) (human)
T1 construct: also called mutant calreticulin
T1 chain: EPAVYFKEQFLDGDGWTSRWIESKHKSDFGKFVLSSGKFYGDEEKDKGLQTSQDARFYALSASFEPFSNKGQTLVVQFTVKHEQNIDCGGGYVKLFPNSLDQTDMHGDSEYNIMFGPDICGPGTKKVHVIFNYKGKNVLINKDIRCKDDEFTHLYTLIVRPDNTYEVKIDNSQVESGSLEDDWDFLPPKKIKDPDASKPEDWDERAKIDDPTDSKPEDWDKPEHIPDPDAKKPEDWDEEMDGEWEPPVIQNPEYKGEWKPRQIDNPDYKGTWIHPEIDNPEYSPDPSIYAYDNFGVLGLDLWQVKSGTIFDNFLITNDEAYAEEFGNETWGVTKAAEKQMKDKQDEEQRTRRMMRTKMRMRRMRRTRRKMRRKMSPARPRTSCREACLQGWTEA
Experiment: flow cytometry, BaF3 MPL-mutCALR cells
Description: On the day of the assay, cells were washed and resuspended in assay buffer. Approximately 200,000 cells/well were added to 96-well plates and stained with the indicated concentration of antibodies for 30 minutes on ice. Cells were then washed and stained with goat anti-human secondary conjugated to R-phycoerythrin (R-PE) (Jackson Immuno Research Laboratories) for 30 minutes on ice. The cells were then washed and analyzed by flow cytometry.

Binder	EC50 [ng/mL]	MPL-mutCALR AUC
B1	10.1	73100
B2	6.3	62400
B3	8.6	69800
B4	7.7	75700
B5	6.9	64400
B6	1.4	73500
B7	1.7	58300
B8	2	65000
B9	4	63500
B10	4.3	54700
B11		88900
B12	5.2	52100
B13	4.3	67300
B14	3.9	53000
B15	21.7	50300
B16	6.3	61600
B17	23.2	76400

Binder	EC50 [ng/mL]	MPL-mutCALR AUC
B18	3.5	49500
B19	3.5	55600
B20	3.2	56300
B21	10	57200
B22	7.9	69900
B23	6.3	60800
B24		96700
B25	1.1	58300
B26	0.4	73400
B27	5	70700
B28	2.6	85800
B29	12.4	53600
B30	1.7	85200
B31	2.3	71100
B32	1.7	69700
B33	4.4	68000
